# Experimental data taken from the RNAGym collection of RNA variant scans (doi:10.1021/acssynbio.7b00057).
# B1: Pistol ribozyme (parent)
# chain: GGGUCGUUGUUCCAUAAUCGCGUGGAUAUGGCACGCAAGUUUCUACCGGGCACCGUAAAUGUCCGACUGGAGCCGUUCGGGCGGCUAUAAACAGACCUCAGGCCCGAAGCGUGGCGGCACCUGCCGCCGGUGGUAAAAAAGAUCGGAAGAGCACACGUCU
# Variants of: B1
# Test: aptazyme ON/OFF ratio, guanine; higher = stronger switching; co-transcriptional cleavage with and without guanine
row,Variant,aptazyme ON/OFF ratio
1,G9A U11C C12G C13A,1.28
2,G9A U10A U11G,2.38
3,G9A U10A U11C,1.08
4,G9A U10A U11A,2.7
5,G9A U10C,3.12
6,G9A U10G,3.45
7,G9A U10A,3.05
8,G9A U11A,2.53
9,G9A U11C,1.12
10,G9A U11G,2.2
11,G9C U10A U11G C12G C13U,1.16
12,G9C U10A U11G C12G C13G,1.13
13,G9C U10A U11G C12G C13A,1.19
14,G9A C12A C13U,1.38
15,G9A C12A C13A,1.45
16,G9A C12A C13G,1.12
17,G9A U10A U11C C12U,1.13
18,G9A U10A U11C C12A,1.65
19,G9A U10A U11C C12G,1.32
20,G9A U10A U11C C12G C13U,1.41
21,G9A U10A U11C C12G C13A,1.31

row,Variant,aptazyme ON/OFF ratio
1,G9A U10A U11C C12G C13G,1.27
2,G9A U11A C13A,1.23
3,G9A U11A C13G,1.1
4,G9A U11A C13U,1.34
5,G9A U10G U11G C12A,1.11
6,G9A U10G U11G C12G,1.25
7,G9A U10G U11G C12U,1.48
8,G9A U11C C12U C13A,1.41
9,G9A U11C C12U C13U,1.55
10,G9A U11C C12U C13G,1.38
11,G9A U10A U11A C12A C13G,1.25
12,G9A U10A U11A C12A C13U,1.97
13,G9A U10A U11A C12A C13A,1.4
14,G9A U10G U11C C12U C13G,1.22
15,G9A U10G U11C C12U C13U,1.4
16,G9A U10G U11C C12U C13A,1.26
17,G9C U10A C12A C13G,1.16
18,G9C U10A C12A C13A,1.21
19,G9C U10A C12A C13U,1.23
20,G9C U10A U11C,1.06
21,G9C U10A U11G,2.06

row,Variant,aptazyme ON/OFF ratio
1,G9C U10A U11A,2.14
2,G9C U10A C13U,1.3
3,G9C U10A C13A,1.3
4,G9C U10A C13G,1.08
5,G9C C13G,1.03
6,G9C C13A,1.02
7,G9C C13U,1.07
8,G9A U10A C12U C13G,1.24
9,G9A U10A C12U C13A,1.39
10,G9A U10A C12U C13U,1.4
11,G9A U10G U11C C12U,1.08
12,G9A U10G U11C C12G,1.33
13,G9A U10G U11C C12A,1.53
14,G9A U10G C13U,1.52
15,G9A U10G C13G,1.15
16,G9A U10G C13A,1.3
17,G9A U10C U11A C12A C13U,1.63
18,G9A U10C U11A C12A C13G,1.42
19,G9A U10C U11A C12A C13A,1.28
20,G9C C12A C13G,1.1
21,G9C C12A C13A,1.29

row,Variant,aptazyme ON/OFF ratio
1,G9C C12A C13U,1.35
2,G9A U10C U11C C12A,1.1
3,G9A U10C U11C C12U,1.06
4,G9A U10C U11C C12G,1.18
5,G9C C12U C13U,1.31
6,G9C C12U C13A,1.14
7,G9C C12U C13G,1.04
8,G9A U10C U11G C12A C13G,1.3
9,G9A U10C U11G C12A C13U,1.21
10,G9A U10C U11G C12A C13A,1.22
11,G9A U10C U11G C12G C13U,1.1
12,G9A U10C U11G C12G C13A,1.17
13,G9A U10C U11G C12G C13G,1.12
14,G9A C12U C13U,1.32
15,G9A C12U C13A,1.46
16,G9A C12U C13G,1.62
17,G9A U10C U11A C12G C13G,1.31
18,G9A U10C U11A C12G C13A,1.14
19,G9A U10C U11A C12G C13U,1.36
20,G9A U10G U11A C12A C13G,1.09
